Reference: publication PMC9795577, “Protein import into peroxisomes occurs through a nuclear pore-like phase” (Science (New York, N.Y.), 2022)

B1: entire unstructured N-terminal region (including the YG domain) of Arabidopsis thaliana PEX13, amino acids 1–193 (domain or fragment)
chain: MASQPAGGSPPKPWEKEGNTSGPNPFRPPSNTSTAGSVEASGTANPGEVVPPPVNRPNTAANMNSLSRPVPARPWEQQNYGSTMGGGYGSNLGMTSGYGSGTYGSALGGYGSSYGGGMYGGSSMYRGGYGGGGLYGSSGMYGGGAMGGYGGTMGGYGMGMGTGMGMGMGMGMGGPYGSQDPNDPFNQPPSPPGC
notes: PEX13 of Arabidopsis thaliana, GenBank NP_187412.1, amino acids 1-193; single engineered cysteine at the C terminus for covalent derivatization; In the permeation assay it stood as a hydrogel droplet formed at 40 mg/ml (2 mM); also called N-terminal fragment; full-length fragment; source: E. coli BL21 Rosetta 2(DE3), purified under denaturing conditions (Ni-NTA), tag removed with TEV protease; …
B2: full-length PEX5 fused to GFP (receptor)
chain: not shown
modifications: C-terminal GGSGGS linker and mEGFP left out
B3: isolated YG domain of Arabidopsis thaliana PEX13, amino acids 76–193 (domain or fragment)
chain: EQQNYGSTMGGGYGSNLGMTSGYGSGTYGSALGGYGSSYGGGMYGGSSMYRGGYGGGGLYGSSGMYGGGAMGGYGGTMGGYGMGMGTGMGMGMGMGMGGPYGSQDPNDPFNQPPSPPGC
notes: PEX13 of Arabidopsis thaliana, GenBank NP_187412.1, amino acids 76-193 (YG domain); single engineered cysteine at the C terminus for covalent derivatization; also called YG domain alone; source: E. coli BL21 Rosetta 2(DE3), purified under denaturing conditions (Ni-NTA), tag removed with TEV protease; not shown: 14×His, N-terminal, cleaved

Key:
[1] = biological target: the molecule itself; experiment: hydrogel formation (gelation); purified fragment concentrated to 40 mg/ml (2 mM) in 2 M urea, 50 mM HEPES-NaOH pH 8.0, 1 mM TCEP, 1 mM EDTA, left in silicone tubing at room temperature, squeezed out and photographed
[2] = biological target: B1; experiment: hydrogel permeation assay (confocal microscopy); droplets of the PEX13 1-193 hydrogel (40 mg/ml) in 25 mM HEPES-KOH pH 7.8, 130 mM KCl; GFP fusion proteins or GFP alone added at 500 nM; enrichment inside the gel over buffer after 30 min; settings: both partners purified

Row | Binder | binding result [1] | fold enrichment inside the gel over buffer [2] [fold]
1 | B1 | binds | –
2 | B2 | – | ~20
3 | B3 | binds | –
